# In patent US10426824 (Dana-Farber, dated 2019):
# B1: E255K-B255-263 mutant BCR-ABL peptide (KVYEGVWKK) (peptide)
# peptide: KVYEGVWKK
# notes: Synthetic 9-mer; also called E255K-B (MUT) peptide; BCR-ABL peptide harboring the E255K mutation
# Target: HLA-A3 (human)
# Assay: competitive MHC binding assay against a reference peptide
binder,measurement,value
B1,IC50,17 nM
